Measurements taken from patent publication US20200216495A1 (ADRX, published 2020).
Several values for one entry are separate records, joined by “and”; a condition that tells them apart may be missing. Equal values may be shown once. Square brackets hold non-standard residues; d marks the D form. Ends that are not written are not given here. dMet(O) = CS(=O)CC[C@@H](N)C(=O)O

B1: vrwwwrlk (peptide)
peptide: [dV][dR][dW][dW][dW][dR][dL][dK]
B2: elkivw (peptide)
peptide: [dE][dL][dK][dI][dV][dW]
B3: klkivw (peptide)
peptide: [dK][dL][dK][dI][dV][dW]
B4: rlkirw (peptide)
peptide: [dR][dL][dK][dI][dR][dW]
B5: rtlkivwr (peptide)
peptide: [dR][dT][dL][dK][dI][dV][dW][dR]
B6: wrlaihw (peptide)
peptide: [dW][dR][dL][dA][dI][dH][dW]
B7: arlrihw (peptide)
peptide: [dA][dR][dL][dR][dI][dH][dW]
B8: wrlrmhw (peptide)
peptide: [dW][dR][dL][dR][dM][dH][dW]
B9: wrlktrw (peptide)
peptide: [dW][dR][dL][dK][dT][dR][dW]
B10: wrrkvrww (peptide)
peptide: [dW][dR][dR][dK][dV][dR][dW][dW]
B11: rkirihyh (peptide)
peptide: [dR][dK][dI][dR][dI][dH][dY][dH]
B12: lkvrww (peptide)
peptide: [dL][dK][dV][dR][dW][dW]
B13: rrlrihw (peptide)
peptide: [dR][dR][dL][dR][dI][dH][dW]
B14: lkarihyh (peptide)
peptide: [dL][dK][dA][dR][dI][dH][dY][dH]
B15: kvrwwwrl (peptide)
peptide: [dK][dV][dR][dW][dW][dW][dR][dL]
B16: wrlmihw (peptide)
peptide: [dW][dR][dL][dM][dI][dH][dW]
B17: erlrihw (peptide)
peptide: [dE][dR][dL][dR][dI][dH][dW]
B18: lkirihy (peptide)
peptide: [dL][dK][dI][dR][dI][dH][dY]
B19: lkrrihyh (peptide)
peptide: [dL][dK][dR][dR][dI][dH][dY][dH]
B20: wrlrifw (peptide)
peptide: [dW][dR][dL][dR][dI][dF][dW]
B21: akirihyh (peptide)
peptide: [dA][dK][dI][dR][dI][dH][dY][dH]
B22: welkvew (peptide)
peptide: [dW][dE][dL][dK][dV][dE][dW]
B23: kirihyhl (peptide)
peptide: [dK][dI][dR][dI][dH][dY][dH][dL]
B24: lkirihah (peptide)
peptide: [dL][dK][dI][dR][dI][dH][dA][dH]
B25: wrekvrww (peptide)
peptide: [dW][dR][dE][dK][dV][dR][dW][dW]
B26: erlkvrww (peptide)
peptide: [dE][dR][dL][dK][dV][dR][dW][dW]
B27: wrlrihm (peptide)
peptide: [dW][dR][dL][dR][dI][dH][dM]
B28: tiklvw (peptide)
peptide: [dT][dI][dK][dL][dV][dW]
B29: wflrihw (peptide)
peptide: [dW][dF][dL][dR][dI][dH][dW]
B30: wklklrw (peptide)
peptide: [dW][dK][dL][dK][dL][dR][dW]
B31: wrlkvrrw (peptide)
peptide: [dW][dR][dL][dK][dV][dR][dR][dW]
B32: lkirrhyh (peptide)
peptide: [dL][dK][dI][dR][dR][dH][dY][dH]
B33: wrarihw (peptide)
peptide: [dW][dR][dA][dR][dI][dH][dW]
B34: klkwlw (peptide)
peptide: [dK][dL][dK][dW][dL][dW]
B35: wrlkvrew (peptide)
peptide: [dW][dR][dL][dK][dV][dR][dE][dW]
B36: lkirihrh (peptide)
peptide: [dL][dK][dI][dR][dI][dH][dR][dH]
B37: wrlriha (peptide)
peptide: [dW][dR][dL][dR][dI][dH][dA]
B38: rlkvrww (peptide)
peptide: [dR][dL][dK][dV][dR][dW][dW]
B39: lkiriha (peptide)
peptide: [dL][dK][dI][dR][dI][dH][dA]
B40: mrlkvrw (peptide)
peptide: [dM][dR][dL][dK][dV][dR][dW]
B41: lkiriayh (peptide)
peptide: [dL][dK][dI][dR][dI][dA][dY][dH]
B42: wrmrihw (peptide)
peptide: [dW][dR][dM][dR][dI][dH][dW]
B43: wrtktrw (peptide)
peptide: [dW][dR][dT][dK][dT][dR][dW]
B44: irihyhlk (peptide)
peptide: [dI][dR][dI][dH][dY][dH][dL][dK]
B45: wrlrihe (peptide)
peptide: [dW][dR][dL][dR][dI][dH][dE]
B46: wrlkhrw (peptide)
peptide: [dW][dR][dL][dK][dH][dR][dW]
B47: wrlkvra (peptide)
peptide: [dW][dR][dL][dK][dV][dR][dA]
B48: lkirieyh (peptide)
peptide: [dL][dK][dI][dR][dI][dE][dY][dH]
B49: wrlriht (peptide)
peptide: [dW][dR][dL][dR][dI][dH][dT]
B50: rikirw (peptide)
peptide: [dR][dI][dK][dI][dR][dW]
B51: wrltihw (peptide)
peptide: [dW][dR][dL][dT][dI][dH][dW]
B52: fkirihyh (peptide)
peptide: [dF][dK][dI][dR][dI][dH][dY][dH]
B53: wklvvw (peptide)
peptide: [dW][dK][dL][dV][dV][dW]
B54: trlrihw (peptide)
peptide: [dT][dR][dL][dR][dI][dH][dW]
B55: lklkikhf (peptide)
peptide: [dL][dK][dL][dK][dI][dK][dH][dF]
B56: wdlkvrw (peptide)
peptide: [dW][dD][dL][dK][dV][dR][dW]
B57: lkixihy (peptide)
peptide: [dL][dK][dI][dMet(O)][dI][dH][dY]
B58: whvkfelf (peptide)
peptide: [dW][dH][dV][dK][dF][dE][dL][dF]
B59: lelkikfw (peptide)
peptide: [dL][dE][dL][dK][dI][dK][dF][dW]
B60: wrlkvdw (peptide)
peptide: [dW][dR][dL][dK][dV][dD][dW]
B61: wrlrifw (peptide)
peptide: [dW][dR][dL][dR][dI][dF][dW]

The binders below were run against Ac-VQIINK-NH2 (SEQ ID NO: 23) (N-terminal acetyl (Ac); C-terminal amide (NH2)) (assay: cell-based or functional assay).

Row | VQIINK Inhibition IC50 | Binder
1 | 9.47 µm | B1
2 | 6.85 µm | B2
3 | 6.95 µm | B3
4 | 10.9 µm | B4
5 | 5.65 µm | B5
6 | 6.49 µm | B6
7 | 6.61 µm | B7
8 | 8.93 µm | B8
9 | 8.61 µm | B9
10 | 6.43 µm | B10
11 | 5.59 µm | B11
12 | 6.63 µm | B12
13 | 12.1 µm | B13
14 | 10 µm | B14
15 | 15.2 µm | B15
16 | 6.58 µm | B16
17 | 13.6 µm | B17
18 | 17.6 µm | B18
19 | 31.8 µm | B19
20 | 6.33 µm | B20
21 | 8.93 µm | B21
22 | 11 µm | B22
23 | 7.25 µm | B23
24 | 5.54 µm | B24
25 | 7.34 µm | B25

Row | VQIINK Inhibition IC50 | Binder
26 | 20.4 µm | B26
27 | 7.39 µm | B27
28 | 5.37 µm | B28
29 | 8.18 µm | B29
30 | 5.33 µm | B30
31 | 7.04 µm | B31
32 | 10.5 µm | B32
33 | 19.1 µm | B33
34 | 6.93 µm | B34
35 | 5.77 µm | B35
36 | 7.35 µm | B36
37 | 9.75 µm | B37
38 | 5.35 µm | B38
39 | 5.3 µm | B39
40 | 5.67 µm | B40
41 | 5.21 µm | B41
42 | 11.7 µm | B42
43 | 13.1 µm | B43
44 | 8.69 µm | B44
45 | 14.5 µm | B45
46 | 13.5 µm | B46
47 | 20.5 µm | B47
48 | 7.95 µm | B48
49 | 7.32 µm | B49
50 | 10.8 µm | B50

These binders were tested against Tau40 P301L protein (human) (assay: cell-based or functional assay).

Row | IC50, Tau40 assay (ThT) | Binder
51 | 2.76 µM | B51
52 | 2.76 µM | B52
53 | 2.81 µM | B53
54 | 2.7 µM | B54
55 | 2.75 µM | B55
56 | 2.76 µM | B56
57 | 2.81 µM | B57
58 | 2.88 µM | B58
59 | 2.73 µM and 2.85 µM | B59
60 | 2.7 µM | B60
61 | 2.79 µM | B61
